Biological target: T1, gD-huPSCA expressed on the surface of transfected cells (Herpes Simplex virus; human, UniProt O43653 12-114)
T1 construct: domain: 25 amino acids of the mature gD; also called gD-PSCA; gDPSCA
Test: cold competition of 125I-Mab 2403 by unlabeled Mab 2403 on PC3.gD.hu PSCA cells, four parameter fit (m3 = IC50)

B1: anti-PSCA monoclonal antibody 5F2.4H4.1E3 (antibody, V domains shown)
VH: QVQVQQPGAELVKPGAPVKLSCKASGYTFTNYWLNWVKQRPGRGLEWIGRIDPSDSEIHYDQKFKDKATLTVDKSSSTAYIQLSSLTSEDSAVYYCALTGIYAMAYWGQGTSVTVSS
VL: DIVMTQAAPSVPVTPGESVSISCRSSKSLLHSNGNTYLYWFLQRPGQSPQLLIYRMSNLASGVPDRFSGSGSGTAFTLRISRVEAEDVGVYYCLQHLEYPYTFGGGTKLELKR
notes: also called 2403; Mab 2403
With B1 as the binder, how does the IC50 read?
Its IC50 is 13 nM.

Reference: patent EP1226177B1 (GENENTECH, INC., dated 2008)
